Experimental data: article PMC5628404 (2017)
Like-named read-outs stand apart in the source and are kept apart here. Blank lines part the entries; values can stand above or below the binder they belong to.

Tests used:
Experiment in all cases: SPR
[1] = target: T1, M1-linked di-ubiquitin chain (M1-Ub2) (human, UniProt P0CG48 1-76; P0CG48 1-76)
[2] = target: M1-linked tetra-ubiquitin chain (M1-Ub4) (human, UniProt P0CG48 1-76; P0CG48 1-76; P0CG48 1-76; P0CG48 1-76)
[3] = target: M1-linked tri-ubiquitin chain (M1-Ub3) (human, UniProt P0CG48 1-76; P0CG48 1-76; P0CG48 1-76)
[4] = target: T2, K27-linked di-ubiquitin (K27-Ub2) (human, UniProt P0CG48 1-76, isopeptide linkage between the C-terminal glycine of one ubiquitin and K27 of the other)
[5] = target: T2, K27-linked di-ubiquitin (K27-Ub2); remark: listed apart in the source
[6] = target: T1, M1-linked di-ubiquitin chain (M1-Ub2); remark: listed apart in the source
[7] = target: T3, K63-linked di-ubiquitin (K63-Ub2) (human, UniProt P0CG48 1-76, isopeptide linkage between the C-terminal glycine of one ubiquitin and K63 of the other)
[8] = target: T2, K27-linked di-ubiquitin (K27-Ub2); remark: listed apart in the source
[9] = target: T1, M1-linked di-ubiquitin chain (M1-Ub2); remark: listed apart in the source
[10] = target: T3, K63-linked di-ubiquitin (K63-Ub2); remark: listed apart in the source

Kd [1]: 60.8 nM
Kd [2]: 22 nM
Kd [3]: 48.5 nM
Kd [4]: 171 nM
B1: BRAP (124–569) (RNF52 domain) (domain or fragment)
chain: DQISFFSGNPSVEIVHGIMHLYKTNKMTSLKEDVRRSAMLCILTVPAAMTSHDLMKFVAPFNEVIEQMKIIRDSTPNQYMVLIKFRAQADADSFYMTCNGRQFNSIEDDVCQLVYVERAEVLKSEDGASLPVMDLTELPKCTVCLERMDESVNGILTTLCNHSFHSQCLQRWDDTTCPVCRYCQTPEPVEENKCFECGVQENLWICLICGHIGCGRYVSRHAYKHFEETQHTYAMQLTNHRVWDYAGDNYVHRLVASKTDGKIVQYECEGDTCQEEKIDALQLEYSYLLTSQLESQRIYWENKIVRIEKDTAEEINNMKTKFKETIEKCDNLEHKLNDLLKEKQSVERKCTQLNTKVAKLTNELKEEQEMNKCLRANQVLLQNKLKEEERVLKETCDQKDLQITEIQEQLRDVMFYLETQQKINHLPAETRQEIQEGQINIAMASA

Kd [5]: 6.27 nM
Kd [6]: 5.19 nM
Kd [7]: 11.3 nM
koff [8]: 0.00302 s⁻¹
koff [9]: 0.00264 s⁻¹
koff [10]: 0.00395 s⁻¹
B2: BRAP (1–592) (full-length) (natural protein)
chain: MSVSLVVIRLELAEHSPVPAGFGFSAAAGEMSDEEIKKTTLASAVACLEGKSPGEKVAIIHQHLGRREMTDVIIETMKSNPDELKTTVEERKSSEASPTAQRSKDHSKECINAAPDSPSKQLPDQISFFSGNPSVEIVHGIMHLYKTNKMTSLKEDVRRSAMLCILTVPAAMTSHDLMKFVAPFNEVIEQMKIIRDSTPNQYMVLIKFRAQADADSFYMTCNGRQFNSIEDDVCQLVYVERAEVLKSEDGASLPVMDLTELPKCTVCLERMDESVNGILTTLCNHSFHSQCLQRWDDTTCPVCRYCQTPEPVEENKCFECGVQENLWICLICGHIGCGRYVSRHAYKHFEETQHTYAMQLTNHRVWDYAGDNYVHRLVASKTDGKIVQYECEGDTCQEEKIDALQLEYSYLLTSQLESQRIYWENKIVRIEKDTAEEINNMKTKFKETIEKCDNLEHKLNDLLKEKQSVERKCTQLNTKVAKLTNELKEEQEMNKCLRANQVLLQNKLKEEERVLKETCDQKDLQITEIQEQLRDVMFYLETQQKINHLPAETRQEIQEGQINIAMASASSPASSGGSGKLPSRKGRSKRGK
